Assay results as given in patent US20160346281A1.

Biological target: Myc-tagged Abl (Abl-Myc), Drosophila Abl (Drosophila melanogaster) (UniProt P00522)
Assay: cell-based or functional assay

Chain of Myc-tagged Abl (Abl-Myc), Drosophila Abl (Drosophila melanogaster) (P00522 whole entry): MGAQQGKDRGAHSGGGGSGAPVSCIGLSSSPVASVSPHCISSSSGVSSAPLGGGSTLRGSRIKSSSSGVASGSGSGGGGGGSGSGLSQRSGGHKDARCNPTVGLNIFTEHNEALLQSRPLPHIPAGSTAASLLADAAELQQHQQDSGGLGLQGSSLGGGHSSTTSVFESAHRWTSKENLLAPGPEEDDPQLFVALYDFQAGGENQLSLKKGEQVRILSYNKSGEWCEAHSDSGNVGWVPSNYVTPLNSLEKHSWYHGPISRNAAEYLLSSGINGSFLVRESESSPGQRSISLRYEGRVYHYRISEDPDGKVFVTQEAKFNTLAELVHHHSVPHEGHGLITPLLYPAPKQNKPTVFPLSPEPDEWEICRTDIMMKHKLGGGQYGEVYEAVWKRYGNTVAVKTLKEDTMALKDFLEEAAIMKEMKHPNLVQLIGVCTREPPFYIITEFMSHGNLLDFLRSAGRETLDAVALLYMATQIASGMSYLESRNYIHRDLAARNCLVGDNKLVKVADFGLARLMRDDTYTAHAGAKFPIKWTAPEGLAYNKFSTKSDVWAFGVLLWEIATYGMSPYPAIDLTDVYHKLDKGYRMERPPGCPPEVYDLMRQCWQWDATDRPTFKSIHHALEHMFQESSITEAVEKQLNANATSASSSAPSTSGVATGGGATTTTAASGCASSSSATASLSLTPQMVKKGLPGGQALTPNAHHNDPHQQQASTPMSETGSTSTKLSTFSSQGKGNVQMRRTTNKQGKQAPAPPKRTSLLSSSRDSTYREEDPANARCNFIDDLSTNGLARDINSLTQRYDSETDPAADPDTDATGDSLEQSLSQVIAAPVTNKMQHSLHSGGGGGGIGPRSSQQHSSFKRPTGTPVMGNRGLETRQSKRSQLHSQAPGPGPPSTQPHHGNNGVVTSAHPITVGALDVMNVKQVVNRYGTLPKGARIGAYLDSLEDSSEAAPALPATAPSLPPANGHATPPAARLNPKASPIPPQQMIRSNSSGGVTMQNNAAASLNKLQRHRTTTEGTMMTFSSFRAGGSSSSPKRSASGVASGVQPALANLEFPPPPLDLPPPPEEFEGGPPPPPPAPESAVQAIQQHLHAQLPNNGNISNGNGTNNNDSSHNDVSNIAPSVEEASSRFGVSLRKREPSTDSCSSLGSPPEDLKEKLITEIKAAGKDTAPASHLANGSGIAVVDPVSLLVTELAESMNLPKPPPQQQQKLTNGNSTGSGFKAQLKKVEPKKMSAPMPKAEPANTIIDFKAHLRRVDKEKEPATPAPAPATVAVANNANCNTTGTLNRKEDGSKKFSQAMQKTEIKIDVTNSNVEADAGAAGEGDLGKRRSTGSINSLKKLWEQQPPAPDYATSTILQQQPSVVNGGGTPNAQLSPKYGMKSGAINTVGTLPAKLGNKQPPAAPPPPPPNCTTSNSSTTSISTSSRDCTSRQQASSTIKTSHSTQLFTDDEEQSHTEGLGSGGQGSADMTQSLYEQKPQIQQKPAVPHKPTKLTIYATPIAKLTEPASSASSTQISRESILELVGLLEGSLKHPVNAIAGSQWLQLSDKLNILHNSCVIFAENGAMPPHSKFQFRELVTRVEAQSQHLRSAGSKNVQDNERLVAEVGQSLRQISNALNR

An Abl kinase activation (anti-phospho-Y412-Abl blot intensity normalized to total Abl-Myc, S2 cell lysates) of 2.6 fold was found for “GFP-tagged Dscam (Dscam[3.36.25.2]::GFP) (receptor)” in this work.
